Laboratory results reported in article PMC4960622, “Crystal structures of RidA, an important enzyme for the prevention of toxic side products” (Scientific Reports, 2016).

B1: Arabidopsis thaliana RidA, construct starting from S68 (AtRidA-S68), wild type [Arabidopsis thaliana] / itself (parent)
chain: STEKAPAALGPYSQAIKANNLVFLSGVLGLIPETGKFVSESVEDQTEQVLKNMGEILKASGADYSSVVKTTIMLADLADFKTVNEIYAKYFPAPSPARSTYQVAALPLNAKIEIECIATL

Variants of: B1
Experiment: size-exclusion chromatography (Superdex-75)
Settings: with itself; 0.5 mg protein loaded; read off a plot

| Variant | screen value [mL] |
| --- | --- |
| STEKAPAALGPYSQAIKANNLVFLSGVLGLIPETGKFVSESVEDQTEQVLKNMGEILKASGADYSSVVKTTIMLADLADFKTVNEIYAKYFPAPSPARATYQVAALPLNAKIEIECIATL [chain 1 S99A] | 11.6 |
| STEKAPAALGPYSQAIKANNLVFLSGVLGLIPETGKFVSESVEDQTEQVLKNMGEILKASGADYSSVVRTTIMLADLADFKTVNEIYAKYFPAPSPARSTYQVAALPLNAKIEIECIATL [chain 1 K69R] | 11.4 |
| STEKAPAALGPYAQAIKANNLVFLSGVLGLIPETGKFVSESVEDQTEQVLKNMGEILKASGADYSSVVKTTIMLADLADFKTVNEIYAKYFPAPSPARSTYQVAALPLNAKIEIECIATL [chain 1 S13A] | 11.4 |
| STEKAPAALGPYSQAIKANNLVFLSGVLGLIPETGKFVSESVEDQTEQVLKNMGEILKASGADYSSVVATTIMLADLADFKTVNEIYAKYFPAPSPARSTYQVAALPLNAKIEIECIATL [chain 1 K69A] | 12 |
| STEKAPAALGPYSQAIKANNLVFLSGVLGLIPETGKFVSESVEDQTEQVLKNMGEILKASGADYSSVVKTTIMLADLADFKTVNEIYAKYFPAPSPARSTYQVAALPLNAKIEIACIATL [chain 1 E115A] | 11.6 |
